Assay in all cases: ITC; Tris buffer
In general terms: ITC needs no label: the signal is the heat of the interaction.

Assay [1] concerns the target T1, SauCas9 PI (PAM-interacting) domain, His-tagged (Staphylococcus aureus).
T1 chain: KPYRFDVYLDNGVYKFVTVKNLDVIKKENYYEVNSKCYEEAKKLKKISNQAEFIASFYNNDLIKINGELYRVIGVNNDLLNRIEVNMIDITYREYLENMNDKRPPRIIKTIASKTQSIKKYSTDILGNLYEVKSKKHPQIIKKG

The target of assay [2] is T2, Staphylococcus aureus Cas9, full length, His-tagged (Staphylococcus aureus, UniProt J7RUA5 1-1053).
T2 chain: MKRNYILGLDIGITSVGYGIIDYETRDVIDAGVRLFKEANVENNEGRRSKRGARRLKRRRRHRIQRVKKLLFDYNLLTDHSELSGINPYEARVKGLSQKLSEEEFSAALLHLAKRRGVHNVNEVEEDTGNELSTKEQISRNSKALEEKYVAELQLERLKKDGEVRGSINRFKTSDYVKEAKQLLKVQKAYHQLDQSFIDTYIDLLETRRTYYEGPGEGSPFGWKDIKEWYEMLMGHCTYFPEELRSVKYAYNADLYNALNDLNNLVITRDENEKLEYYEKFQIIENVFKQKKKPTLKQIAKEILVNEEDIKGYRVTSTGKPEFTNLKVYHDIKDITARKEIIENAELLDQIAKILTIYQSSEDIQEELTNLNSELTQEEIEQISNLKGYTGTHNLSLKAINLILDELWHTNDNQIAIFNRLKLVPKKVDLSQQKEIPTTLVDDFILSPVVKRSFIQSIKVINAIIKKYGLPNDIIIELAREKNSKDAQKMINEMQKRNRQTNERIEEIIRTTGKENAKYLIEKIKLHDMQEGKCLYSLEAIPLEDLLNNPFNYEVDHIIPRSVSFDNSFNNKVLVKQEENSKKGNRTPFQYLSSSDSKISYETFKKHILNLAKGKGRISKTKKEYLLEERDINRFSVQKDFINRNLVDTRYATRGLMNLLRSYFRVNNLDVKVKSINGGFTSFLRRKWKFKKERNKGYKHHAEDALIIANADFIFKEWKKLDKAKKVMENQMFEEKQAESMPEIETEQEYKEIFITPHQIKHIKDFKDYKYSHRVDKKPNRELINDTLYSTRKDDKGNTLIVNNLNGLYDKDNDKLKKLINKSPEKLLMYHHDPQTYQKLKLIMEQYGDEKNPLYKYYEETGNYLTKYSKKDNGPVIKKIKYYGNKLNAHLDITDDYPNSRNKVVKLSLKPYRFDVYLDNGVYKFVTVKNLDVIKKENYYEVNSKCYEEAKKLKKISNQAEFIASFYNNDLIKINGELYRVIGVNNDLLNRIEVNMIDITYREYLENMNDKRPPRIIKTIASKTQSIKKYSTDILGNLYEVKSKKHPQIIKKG

Assay [3] addresses T3, SauCas9 WED-PI domain construct, His-tagged (Staphylococcus aureus).
T3 chain: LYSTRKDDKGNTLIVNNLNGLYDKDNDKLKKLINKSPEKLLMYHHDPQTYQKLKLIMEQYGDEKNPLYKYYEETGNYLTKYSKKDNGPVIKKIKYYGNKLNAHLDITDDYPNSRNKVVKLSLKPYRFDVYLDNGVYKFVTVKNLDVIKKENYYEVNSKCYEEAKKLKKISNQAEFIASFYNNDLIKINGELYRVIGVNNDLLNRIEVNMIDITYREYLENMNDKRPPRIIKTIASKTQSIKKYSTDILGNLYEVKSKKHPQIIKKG

The target in assay [4] is T4, SauCas9 WED (wedge-like) domain, His-tagged (Staphylococcus aureus).
T4 chain: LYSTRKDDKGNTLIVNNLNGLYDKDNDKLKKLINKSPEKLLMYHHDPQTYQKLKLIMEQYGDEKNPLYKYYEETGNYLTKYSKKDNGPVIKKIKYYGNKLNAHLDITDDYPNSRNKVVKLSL

A word on the Kd: it is the constant that tells how readily two partners part at equilibrium. Lower therefore signals a tighter complex.

B1: Staphylococcus haemolyticus AcrIIA13b, wild type, with C-terminal 6xHis tag (natural protein)
chain: MNELNNKMIEDVVLGEVELIEDLGQYFIDIEGDYEYNVEFATLSEVDYKVCALYEVATSKTYEVPYHDKLEKEDMKLFYDKWLEKDQQEETYIESVFFVNREDAESYIKDVLKGKESLTEVAAEIGYFELEHHHHHH
Consider B1, for which the dissociation constant Kd in assay [1] turned out to be 3.83 µM; in assay [2] it was 6.15 µM; in assay [3], 1610 nM; in assay [4], 8.17 µM.

For the origin of these results see PMC13147308 (2025).
